According to US6355611B1, “Salt form of a conjugate useful in the treatment of prostate cancer” (Merck & Co., Inc., priority 1999, dated 2002):
Converted amounts (≈) assume the structure as drawn. Where two headings read alike, the source gives them in different places. Starred links: 1 amine or outer side, 2 acyl side, 3 side chain; linkers in the order of their positions; H or OH if unused. Non-standard residues stand in square brackets, D forms with d. Residues, ends and D or L forms follow the SMILES beside them. ξ: configuration not given here. *: point of attachment. X1 = COc1cccc2c1C(=O)c1c(O)c3c(c(O)c1C2=O)C[C@@](O)(C(=O)CO)C[C@@H]3OC1CC(N*)C(O)C(C)O1; X2 = COc1cccc2c1C(=O)c1c(O)c3c(c(O)c1C2=O)CC(O)(C(=O)CO)CC3OC1CC(N*)C(O)C(C)O1; Glutaryl = O=C(CCCC(=O)[*:2])[*:1]; Hyp = O=C(O)[C@@H]1C[C@@H](O)CN1; Chg = N[C@H](C(=O)O)C1CCCCC1; ξChg = NC(C(=O)O)C1CCCCC1; ξHyp = O=C(O)C1CC(O)CN1; ξS = NC(CO)C(=O)O; ξA = CC(N)C(=O)O

Assays:
Format in all cases: physicochemical
[1] = Solubility in water at room temperature
Text: (§1) It has further been discovered that the sodium salt of the Formula 5 offers advantages with respect to dissolution in water.
It has further been discovered that the lyophilized formulation offers advantages with respect to dissolution in water.

pH of aqueous solution = conditions: unbuffered aqueous solution
Text: (§2) An aqueous solution of the sodium salt of the instant invention has a pH of greater than 5.0. It has been discovered that the bond between the sugar moiety of doxorubicin and the tetracyclic doxorubicinone moiety is more readily cleaved at aqueous pH of less than 4.0. Therefore the sodium salt offers clear formulation advantages over the free acid, which has an unbuffered aqueous pH of less than 4.0.

[2] = Thermal / storage stability; conditions: sodium salt compared with free acid
Description: as §2
In particular, the lyophilized formulation is prepared by the addition of a salt of a carboxylic acid to an aqueous solution of the previously described free acid compound 4. The amount of carboxylate salt that is added to the prelyophilization solution of the compound of formula 4 is from about 3 molar equivalents of base of trisodium citrate per mole of compound 4 to about 9 molar equivalents of base per mole of compound 4. Preferably, the amount of salt that is added is about 5 molar equivalents of base per mole of compound 4.

[3] = Aggregate formation on dissolution in water (filtration through 0.22μ filter)
Text: as §1

Row | SMILES | solubility [1] | solubility ([1]; pH 2.35) [mg/mL] | solubility ([1]; pH 5.72, water) [mg/mL] | solubility ([1]; room temperature, water, read-out: solubility) [mg/mL] | pH of aqueous solution (pH of aqueous solution) | thermal stability [2] | formation of aggregates on dissolution in water [3]
1 | COc1cccc2c1C(=O)c1c(O)c3c(c(O)c1C2=O)C[C@@](O)(C(=O)CO)C[C@@H]3OC1CC(NC(=O)[C@H](CC(C)C)NC(=O)[C@H](CO)NC(=O)[C@H](CCC(N)=O)NC(=O)[C@@H](NC(=O)[C@H](CO)NC(=O)[C@H](C)NC(=O)[C@@H]2C[C@@H](O)CN2C(=O)CCCC(=O)O)C2CCCCC2)C(O)C(C)O1 (stereo partly drawn) [Compound 4, [N-Glutaryl-(4-trans-L-Hyp)]-Ala-Ser-Chg-Gln-Ser-Leu-Dox] (Glutaryl-[Hyp]AS[Chg]QSL-X1) | 13.8 mg/mL of water | 3.98 (≈ 2850 µM) | > 156 |  |  |  | 
2 | COc1cccc2c1C(=O)c1c(O)c3c(c(O)c1C2=O)CC(O)(C(=O)CO)CC3OC1CC(NC(=O)[C@H](CC(C)C)NC(=O)C(CO)NC(=O)[C@H](CCC(N)=O)NC(=O)C(NC(=O)C(CO)NC(=O)C(C)NC(=O)C2CC(O)CN2C(=O)CCCC(=O)[O-])C2CCCCC2)C(O)C(C)O1.[Na+] (stereo partly drawn) [Compound 5, [N-Glutaryl-(4-trans-L-Hyp)]-Ala-Ser-Chg-Gln-Ser-Leu-Dox Sodium salt] (Glutaryl-[ξHyp][ξA][ξS][ξChg]Q[ξS]L-X2) |  |  |  | > 277 | greater than 5.0 | more thermally stable than the corresponding free acid compound | dissolves in water without forming aggregates
